Drawing on article PMC4364741, “Recognition of Neisseria meningitidis by the Long Pentraxin PTX3 and Its Role as an Endogenous Adjuvant” (PLoS ONE, 2015), this text covers Kd for two molecules.

This assay addresses T1, Biotinylated human PTX3 (bPTX3) (human, UniProt P26022 18-381, biotin (sites not given)).
T1 construct: Long pentraxin 3 (PTX3), human, as m1 but biotinylated; secreted by CHO cells and purified from the supernatant; Same protein as m1 with a biotin label; also called human bPTX3
The assay can be described thus: ELISA; bPTX3 (0.56–17.92 pmol) on triplicate wells coated with 125 pmol/well of antigen; bound PTX3 from a standard curve of bPTX3; nonlinear fitting, one site binding curve; apparent. The following applies: both partners purified. (In general: In an ELISA, binding on a coated surface is turned into a signal by an enzyme label.)

T1 sequence (P26022 18-381): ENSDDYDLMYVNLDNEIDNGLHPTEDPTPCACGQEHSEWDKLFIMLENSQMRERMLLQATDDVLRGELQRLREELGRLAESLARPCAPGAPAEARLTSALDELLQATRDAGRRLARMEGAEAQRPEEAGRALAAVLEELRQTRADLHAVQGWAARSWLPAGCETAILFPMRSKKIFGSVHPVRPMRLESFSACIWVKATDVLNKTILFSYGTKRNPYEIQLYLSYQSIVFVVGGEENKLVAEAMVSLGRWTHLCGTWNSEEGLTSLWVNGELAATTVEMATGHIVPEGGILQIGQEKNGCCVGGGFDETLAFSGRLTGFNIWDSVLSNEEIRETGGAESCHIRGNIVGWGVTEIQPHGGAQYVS

B1: Genome-derived Neisserial antigen GNA1030 (natural protein)
chain: ATYKVDEYHANARFAIDHFNTSTNVGGFYGLTGSVEFDQAKRDGKIDITIPIANLQSGSQHFTDHLKSADIFDAAQYPDIRFVSTKFNFNGKKLVSVDGNLTMHGKTAPVKLKAEKFNCYQSPMEKTEVCGGDFSTTIDRTKWGMDYLVNVGMTKSVRIDIQIEAAKQ
As for B1, the Kd was determined as 37 nM.

B2: Genome-derived Neisserial antigen GNA2091 (natural protein, Neisseria meningitidis, UniProt Q9JXE1 1-202, looked up)
chain: CVSAVIGSAAVGAKSAVDRRTTGAQTDDNVMALRIETTARSYLRQNNQTKGYTPQISVVGYNRHLLLLGQVATEGEKQFVGQIARSEQAAEGVYNYITVASLPRTAGDIAGDTWNTSKVRATLLGISPATQARVKIVTYGNVTYVMGILTPEEQAQITQKVSTTVGVQKVITLYQNYVQR
notes: GNA2091, recombinant surface molecule of Neisseria meningitidis
B2: the Kd came to 4 nM.
